Test results reported in US5994296A, “Human mutant tissue factor compositions useful as tissue factor antagonists” (priority 1998, dated 1999).

Columns and labels:
[1] = test system: Factor X; assay: ability to functionally cleave Factor X (reaction rate Vmax) of D44 mutants; type: biochemical; settings: D44 substitution study
Experimental: (§1) The lysate was prepared by treating cell pellets with 15 mM octyl-glucopyranoside for 15 minutes at 37C. followed by a 3-fold dilution. […] Formed TF-VIIa complexes were quantified with substrate factor X added at 100 nM for a fixed time. Samples were then removed from the reaction and quenched in 100 mM EDTA in TBS (20 mM Tris-HCl, 140 mM NaCl, pH 7.4). The formation of Xa in the quenched reaction was determined with the chromogenic peptidyl substrate, Spectrozyme FXa (1.2 mM). The rate of Spectrozyme hydrolysis, measured as the increase in absorbance (mOD/min), was determined at ambient temperature in a kinetic plate reader (Molecular Devices, Mountain View, Calif.) followed by quenching and monitoring of product factor Xa formation using the Spectrozyme FXa.
Additional mhuTF mutants were prepared based on amino acid residue substitutions at amino acid residue position number D44.

[2] = test system: recalcified plasma; assay: one stage clotting (coagulation) assay of full-length TF mutants in CHO cell lysates; type: biochemical; settings: coagulant activity normalized to antigen concentration; full-length mutants expressed in CHO cells
Experimental: The full-length TF mutants prepared above were analyzed for function by coagulation assay. […] Coagulation factor deficient plasmas were purchased from George King Bio-medical. The chromogenic substrate, Spectrozyme FXa, was from American Diagnostica Inc. (Greenwich, Conn.).
An alternative approach was to use a polyvalent antibody purified by affinity for capturing TF followed by detection with the TF8-5G9 monoclonal antibody described above.
Initiation of coagulation by wild-type and mutant TF in recalcified plasma was determined after lysis of cell pellets from 2×10^6 cells/ml for each expressed full-length mutant with 15 mM octyl-glucopyranoside in HBS for 15 minutes at 37C. followed by a 3-fold dilution.
All data represented are based on at least three independent determinations performed in duplicate.

[3] = test system: VIIa; assay: linked chromogenic assay with purified VIIa and factor X (apparent dissociation constant of TF-VIIa); type: binding; settings: 5 mM Ca2+, Factor X 100 nM
Experimental: as §1
Enzfitter (Elsevier Biosoft) programs were employed to calculate the KDapp from the experimentally determined bound VIIa, and free VIIa which was obtained by subtracting bound VIIa from the initial VIIa concentration.

Row | Molecule | loss of function (specific functional activity, Vmax) compared to wild-type [1] [%] | reaction rate (Vmax) ([1]; Factor X cleavage) [per second] | reduction in specific functional activity (loss of function) relative to wild-type TF [2] | increase in KDapp for the TF-VIIa interaction compared to wild-type TF (ratio KD mutant/KD wild-type) [3] [fold]
1 | R44: mhuTF with arginine substituted in place of D44 (protein, UniProt P13726 33-251, looked up, variant D44R, extracellular domain, mhuTF with arginine substituted in place of D44) extracellular domain: SGTTNTVAAYNLTWKSTNFKTILEWEPKPVNQVYTVQISTKSGRWKSKCFYTTDTECDLTDEIVKDVKQTYLARVFSYPAGNVESTGSAGEPLYENSPEFTPYLETNLGQPTIQSFEQVGTKVNVTVEDERTLVRRNNTFLSLRDVFGKDLIYTLYYWKSSSSGKKTAKTNTNEFLIDVDKGENYCFSVQAVIPSRTVNRKSTDSPVECMGQEKGEFRE | 75 | ~0.5 | – | –
2 | Ile-22 to Ala: human tissue factor mutant with alanine substituted for Ile-22 (protein, UniProt P13726 33-295, looked up, variant I22A) Tissue factor: SGTTNTVAAYNLTWKSTNFKTALEWEPKPVNQVYTVQISTKSGDWKSKCFYTTDTECDLTDEIVKDVKQTYLARVFSYPAGNVESTGSAGEPLYENSPEFTPYLETNLGQPTIQSFEQVGTKVNVTVEDERTLVRRNNTFLSLRDVFGKDLIYTLYYWKSSSSGKKTAKTNTNEFLIDVDKGENYCFSVQAVIPSRTVNRKSTDSPVECMGQEKGEFREIFYIIGAVVFVVIILVIILAISLHKCRKAGVGQSWKENSPLNVS | – | – | 35% | 11
3 | Asp-58 to Ala: human tissue factor mutant with alanine substituted for Asp-58 (protein, UniProt P13726 33-295, looked up, variant D58A) Tissue factor: SGTTNTVAAYNLTWKSTNFKTILEWEPKPVNQVYTVQISTKSGDWKSKCFYTTDTECALTDEIVKDVKQTYLARVFSYPAGNVESTGSAGEPLYENSPEFTPYLETNLGQPTIQSFEQVGTKVNVTVEDERTLVRRNNTFLSLRDVFGKDLIYTLYYWKSSSSGKKTAKTNTNEFLIDVDKGENYCFSVQAVIPSRTVNRKSTDSPVECMGQEKGEFREIFYIIGAVVFVVIILVIILAISLHKCRKAGVGQSWKENSPLNVS | – | – | – | 41
4 | Val-64/Tyr-71 to Ala: human tissue factor double mutant with alanines for Val-64 and Tyr-71 (protein, UniProt P13726 33-295, looked up, variant V64A Y71A) Tissue factor: SGTTNTVAAYNLTWKSTNFKTILEWEPKPVNQVYTVQISTKSGDWKSKCFYTTDTECDLTDEIAKDVKQTALARVFSYPAGNVESTGSAGEPLYENSPEFTPYLETNLGQPTIQSFEQVGTKVNVTVEDERTLVRRNNTFLSLRDVFGKDLIYTLYYWKSSSSGKKTAKTNTNEFLIDVDKGENYCFSVQAVIPSRTVNRKSTDSPVECMGQEKGEFREIFYIIGAVVFVVIILVIILAISLHKCRKAGVGQSWKENSPLNVS | – | – | – | 2.1
5 | Phe-140: human tissue factor alanine mutant at Phe-140 (protein, UniProt P13726 33-295, looked up, variant F140A) Tissue factor: SGTTNTVAAYNLTWKSTNFKTILEWEPKPVNQVYTVQISTKSGDWKSKCFYTTDTECDLTDEIVKDVKQTYLARVFSYPAGNVESTGSAGEPLYENSPEFTPYLETNLGQPTIQSFEQVGTKVNVTVEDERTLVRRNNTALSLRDVFGKDLIYTLYYWKSSSSGKKTAKTNTNEFLIDVDKGENYCFSVQAVIPSRTVNRKSTDSPVECMGQEKGEFREIFYIIGAVVFVVIILVIILAISLHKCRKAGVGQSWKENSPLNVS | – | – | 30-50% | 18
6 | Arg-135: human tissue factor alanine mutant at Arg-135 (protein, UniProt P13726 33-295, looked up, variant R135A) Tissue factor: SGTTNTVAAYNLTWKSTNFKTILEWEPKPVNQVYTVQISTKSGDWKSKCFYTTDTECDLTDEIVKDVKQTYLARVFSYPAGNVESTGSAGEPLYENSPEFTPYLETNLGQPTIQSFEQVGTKVNVTVEDERTLVARNNTFLSLRDVFGKDLIYTLYYWKSSSSGKKTAKTNTNEFLIDVDKGENYCFSVQAVIPSRTVNRKSTDSPVECMGQEKGEFREIFYIIGAVVFVVIILVIILAISLHKCRKAGVGQSWKENSPLNVS | – | – | 30-50% | 7.4
7 | Arg-196: human tissue factor alanine mutant at Arg-196 (protein, UniProt P13726 33-295, looked up, variant R196A) Tissue factor: SGTTNTVAAYNLTWKSTNFKTILEWEPKPVNQVYTVQISTKSGDWKSKCFYTTDTECDLTDEIVKDVKQTYLARVFSYPAGNVESTGSAGEPLYENSPEFTPYLETNLGQPTIQSFEQVGTKVNVTVEDERTLVRRNNTFLSLRDVFGKDLIYTLYYWKSSSSGKKTAKTNTNEFLIDVDKGENYCFSVQAVIPSATVNRKSTDSPVECMGQEKGEFREIFYIIGAVVFVVIILVIILAISLHKCRKAGVGQSWKENSPLNVS | – | – | – | 3.5
